Experimental data: patent publication US20170173114A1, “METHODS AND COMPOSITIONS FOR INDUCTION OF UCP1 EXPRESSION” (Joslin Diabetes Center, Inc., priority 2014, published 2017)
“Also recorded” adds a separate entry of the source.

B1: FGF21: fibroblast growth factor 21, member of the endocrine FGF ligands (protein, listed as Homo sapiens)
chain: MDSDETGFEHSGLWVSVLAGLLLGACQAHPIPDSSPLLQFGGQVRQRYLYTDDAQQTEAHLEIREDGTVGGAADQSPESLLQLKALKPGVIQILGVKTSRFLCQRPDGALYGSLHFDPEACSFRELLLEDGYNVYQSEAHGLPLHLPGNKSPHRDPAPRGPARFLPLPGLPPALPEPPGILAPQPPDVGSSDPLSMVGPSQGRSPSYAS
B2: EGF: control treatment in glucose uptake assay (protein, UniProt P01133 23-1207, looked up)
Pro-epidermal growth factor: PQHWSCPEGTLAGNGNSTCVGPAPFLIFSHGNSIFRIDTEGTNYEQLVVDAGVSVIMDFHYNEKRIYWVDLERQLLQRVFLNGSRQERVCNIEKNVSGMAINWINEEVIWSNQQEGIITVTDMKGNNSHILLSALKYPANVAVDPVERFIFWSSEVAGSLYRADLDGVGVKALLETSEKITAVSLDVLDKRLFWIQYNREGSNSLICSCDYDGGSVHISKHPTQHNLFAMSLFGDRIFYSTWKMKTIWIANKHTGKDMVRINLHSSFVPLGELKVVHPLAQPKAEDDTWEPEQKLCKLRKGNCSSTVCGQDLQSHLCMCAEGYALSRDRKYCEDVNECAFWNHGCTLGCKNTPGSYYCTCPVGFVLLPDGKRCHQLVSCPRNVSECSHDCVLTSEGPLCFCPEGSVLERDGKTCSGCSSPDNGGCSQLCVPLSPVSWECDCFPGYDLQLDEKSCAASGPQPFLLFANSQDIRHMHFDGTDYGTLLSQQMGMVYALDHDPVENKIYFAHTALKWIERANMDGSQRERLIEEGVDVPEGLAVDWIGRRFYWTDRGKSLIGRSDLNGKRSKIITKENISQPRGIAVHPMAKRLFWTDTGINPRIESSSLQGLGRLVIASSDLIWPSGITIDFLTDKLYWCDAKQSVIEMANLDGSKRRRLTQNDVGHPFAVAVFEDYVWFSDWAMPSVMRVNKRTGKDRVRLQGSMLKPSSLVVVHPLAKPGADPCLYQNGGCEHICKKRLGTAWCSCREGFMKASDGKTCLALDGHQLLAGGEVDLKNQVTPLDILSKTRVSEDNITESQHMLVAEIMVSDQDDCAPVGCSMYARCISEGEDATCQCLKGFAGDGKLCSDIDECEMGVPVCPPASSKCINTEGGYVCRCSEGYQGDGIHCLDIDECQLGEHSCGENASCTNTEGGYTCMCAGRLSEPGLICPDSTPPPHLREDDHHYSVRNSDSECPLSHDGYCLHDGVCMYIEALDKYACNCVVGYIGERCQYRDLKWWELRHAGHGQQQKVIVVAVCVVVLVMLLLLSLWGAHYYRTQKLLSKNPKNPYEESSRDVRSRRPADTEDGMSSCPQPWFVVIKEHQDLKNGGQPVAGEDGQAADGSMQPTSWRQEPQLCGMGTEQGCWIPVSSDKGSCPQVMERSFHMPSYGTQTLEGGVEKPHSLLSANPLWQQRALDPPHQMELTQ
modifications: Pro-epidermal growth factor

Key:
UCP1 [1] = assay: UCP1 mRNA expression in SVF cells from subcutaneous white adipose tissue (SQ-SVF); type: cell-based, C57BL/6 mice; conditions: growth media, 3 days; vs control
Procedure: (§1) Eight 6-week old C57BL/6 male mice were sacrificed. Interscapular BAT and axillary subcutaneous WAT were removed, minced and digested with 1 mg/ml collagenase for 45 minutes at 37° C. in DMEM/F12 media, containing 1% BSA and antibiotics. Digested tissues were filtered through sterile 150 μm nylon mesh and centrifuged at 250×g for 5 minutes. The floating fractions consisting of adipocytes were discarded and the pellets representing the SVF were then resuspended in erythrocyte lysis buffer (154 mM NH4Cl, 10 mM KHCO3, 0.1 mM EDTA) for 10 minutes to remove red blood cells. The cells were further centrifuged at 500×g for 5 minutes, plated at 8×10^5 cells/well of a 24-well plate and grown at 37° C. in DMEM/F12 supplemented with 10% FBS at 37° C.
(§2) To determine if FGF6 treatment of primary adipose progenitors could also increase UCP1 expression as observed in Example 1, stromo-vascular fraction (SVF) cells, which comprise adipocyte progenitors, were isolated from interscapular brown adipose tissue (BAT-SVF) and subcutaneous white adipose tissue (SQ-SVF). SVF cells were subsequently treated with FGF6 or FGF21 in growth media (DMEM+10% FBS) for 3 days, followed by determination of UCP1 expression. As described in FIGS. 9A and 9B, FGF21 treatment had little effect on UCP1 mRNA expression in either type of SVF cells, as compared to the control. […]

UCP1 [2] = assay: UCP1 mRNA expression in C2C12 myogenic progenitors; type: cell-based; conditions: three days
UCP1 [3] = assay: UCP1 mRNA expression in SVF cells from interscapular brown adipose tissue (BAT-SVF); type: cell-based, C57BL/6 mice; conditions: growth media, 3 days; vs control
Procedure: as §1, §2

UCP1 [4] = assay: UCP1 mRNA expression (Q-RT-PCR) in WT-1 brown preadipocytes; type: cell-based, murine
Procedure: Total RNA was isolated with QIAzol lysis reagent (Qiagen, Valencia, Calif.) and purified by RNeasy Mini columns (Qiagen) following the manufacture's instructions. cDNA was prepared from total RNA using the Advantage RT-PCR kit (BD Biosciences, Palo Alto, Calif.) according to manufacturer's instructions. Diluted cDNA was used in a PCR reaction with SYBR Green Master Mix (Applied Biosystems, Foster City, Calif.) and primers specifically designed for detection of the gene of interest. PCR reactions were run in duplicate for each sample and quantitated in the ABI Sequence Detection System (Applied Biosystems). Data were expressed as arbitrary units after normalization to levels of expression of internal controls for each sample. Sequences of primers for specific genes are each obtained from the published literature or designed using publically available gene sequence databases. Unless otherwise indicated, gene expression data described in the examples below was obtained using QPCR.
The effect of FGF6 on differentiation of WT-1 murine brown preadipocytes was also examined. WT-1 cells can be induced to undergo brown adipocyte differentiation, characterized by lipid accumulation and expression of adipogenic and brown fat markers, as described above (Klein et al. (1999) J Biol Chem 274:34795; Tseng et al. (2005) Nat Cell Biol 7:601). WT-1 cells were treated with FGF6 in growth media (DMEM+10% FBS), a vehicle control (“control” or “C” referred to in FIGS. 3A-D), or induction media (“induction” or “I” referred to in FIGS. 3A-D) as described above for seven days. Following the treatment, cells were examined for the color of the culture media in combination with oil Red O staining, expression of adipogenic markers, expression of brown fat markers, immunofluorescent staining of cells with UCP1 and DPAI, and Western blot analysis to determine the presence of UCP1 and β-tubulin. The results are described in FIGS. 3A to 3D.
UCP1 mRNA expression in brown adipocyte cells was determined at FGF6 concentrations ranging from 0 to 300 ng/ml in the absence of induction cocktail.
In order to determine the length of time necessary to induce UCP1 expression upon exposure to of cells to FGF6, an experiment was performed whereby FGF6 was administered to brown preadipocytes at a concentration of 200 ng/ml and UCP1 expression was determined. FGF21 and a control were also used in the time course experiment. FGF21, a member of the endocrine FGF ligands that has been implicated in the browning of white fat (Fisher F. M. et al., Genes Dev. 26:271-281, 2012). […] FGF6 could acutely induce a significant increase of UCP1 expression as early as 4 hours after a 200 ng/ml dose, as described in FIG. 4B. At 24 hours, the fold-induction of UCP1 mRNA by FGF6 reached 700-fold higher than the untreated cells, as described in FIG. 4B.
To assess FGF6's role in the regulation of mitochondrial activity, FGF6 was stably expressed in WT-1 brown preadipocytes and 3T3-F442A white preadipocytes. Stable cells were generated by viral infection followed by drug selection.
FGF2, FGF6 and FGF9 were used at a dosage of 50 ng/mL, 100 ng/mL, 200 ng/mL or 300 ng/mL. FGF21 was used at the dosage of 50 ng/ml and 500 ng/mL. The concentration of BMP7 was 3.3 nM. RNA was isolated and UCP1 and PPARγ expression levels were evaluated by quantitative reverse transcription polymerase chain reaction (Q-RT-PCR) analysis after 24 hours (i.e., 1 day) (FIG. 14A), 2 days (FIG. 14B), 5 days (FIG. 14C) and 7 days (FIG. 14D) of treatment. All experiments were performed triplicate and the data are presented as mean+/−SEM.
FGF2, FGF6 and FGF9 were used at a dosage of 200 ng/mL. FGF21 was used at a dosage of 500 ng/mL. The concentration of BMP7 was 3.3 nM. mRNA was isolated and UCP1 and PPARγ expression levels were evaluated by quantitative reverse transcription polymerase chain reaction (Q-RT-PCR) analysis after 24 hours (i.e., 1 day), 2 days, 5 days and 7 days of treatment (FIG. 15). […]

WT-1 brown preadipocytes = assay: 2-deoxy-[3H]glucose uptake in WT-1 brown preadipocytes; type: cell-based, murine; conditions: FGF6 overexpressing vs control and EGF
Procedure: (§3) The following glucose uptake assay was used to determine whether FGF6 could impact cellular glucose uptake. Specifically, glucose uptake was monitored in WT-1 brown preadipocytes and 3T3-F442A white preadipocytes in the presence or absence of FGF6. After serum starvation in DMEM/H medium containing 1% of BSA for 2-3 h, cells were washed with HEPES buffer and then incubated with or without 100 nM insulin for 30 min in DMEM/H medium containing 1% of BSA. Glucose transport was determined by the addition of 2-deoxy-[3H]glucose (0.1 mM, 0.5 μCi/mL; PerkinElmer Life and Analytical Science, Waltham, Mass.). After 5 minutes of incubation, the reaction was stopped by ice-cold PBS and cells were washed twice with ice-cold PBS. Cells were then lysed in 0.1% SDS, and glucose uptake was assessed in 4 mL of scintillant using Beckman LS6500 scintillation counter (Beckman Coulter, Indianapolis Ind.). Nonspecific 2-deoxy-[3H]glucose uptake was measured in the presence of cytochalasin B (20 μM) and was subtracted from the total uptake to get specific glucose uptake. Results were expressed as the mean±s.e.m. of the indicated number of experiments. The protein content was determined by the Bradford method.
The role of PGs in regulating mitochondrial function and cellular glucose uptake was also assessed. […]

[5] = test system: 3T3-F442A white preadipocytes; assay: 2-deoxy-[3H]glucose uptake in 3T3-F442A white preadipocytes; type: cell-based; conditions: FGF6 overexpressing vs control and EGF
Procedure: as §3

[6] = FGF21 50 and 500 ng/mL, BMP7 3.3 nM, with insulin and T3

Molecule | effect on UCP1 mRNA expression in SQ-SVF (UCP1 [1]) | UCP1 mRNA expression in C2C12 myogenic progenitors (UCP1 [2]) | effect on UCP1 mRNA expression in BAT-SVF (UCP1 [3]) | UCP1 expression level, time course (UCP1 [4]; FGF2, FGF6, FGF9 200 ng/mL, FGF21 500 ng/mL, with insulin and T3, 1, 2, 5, 7 days) | UCP1 expression level at day 7 (UCP1 [4]; [6]) | UCP1 expression level at days 1, 2 and 5 (UCP1 [4]; [6]) | effect on UCP1 expression in brown preadipocytes cultured in growth media (UCP1 [4]; data not shown) | glucose uptake level in WT-1 (brown) preadipocytes (WT-1 brown preadipocytes) | glucose uptake level in F442A (white) preadipocytes [5]
B1 | little effect | neither FGF6 nor FGF21 induced UCP1 mRNA expression; also recorded: no induction of UCP1 | little effect | did not express detectable amounts of UCP1 | only minimal amounts | did not express detectable amounts of UCP1 | marginal effect | – | –
B2 | – | – | – | – | – | – | – | no substantial effect | no substantial effect
